Data: PMC5018964, “Visualization and ligand-induced modulation of dopamine receptor dimerization at the single molecule level” (Scientific Reports, 2016)

Experiments:
Conditions in all cases: remark: other sources report otherwise
[1] = biological target: T1, N-terminally SNAP-tagged human dopamine D2L receptor (human), P14416; test: single-molecule TIRF microscopy (apparent lifetime of particle colocalization); Alexa546-labelled SNAP constructs on living CHO cells, ligand-free; time from the beginning of tracking to a one-step intensity change, 120 trajectories, one-phase exponential decay; apparent
T1 chain: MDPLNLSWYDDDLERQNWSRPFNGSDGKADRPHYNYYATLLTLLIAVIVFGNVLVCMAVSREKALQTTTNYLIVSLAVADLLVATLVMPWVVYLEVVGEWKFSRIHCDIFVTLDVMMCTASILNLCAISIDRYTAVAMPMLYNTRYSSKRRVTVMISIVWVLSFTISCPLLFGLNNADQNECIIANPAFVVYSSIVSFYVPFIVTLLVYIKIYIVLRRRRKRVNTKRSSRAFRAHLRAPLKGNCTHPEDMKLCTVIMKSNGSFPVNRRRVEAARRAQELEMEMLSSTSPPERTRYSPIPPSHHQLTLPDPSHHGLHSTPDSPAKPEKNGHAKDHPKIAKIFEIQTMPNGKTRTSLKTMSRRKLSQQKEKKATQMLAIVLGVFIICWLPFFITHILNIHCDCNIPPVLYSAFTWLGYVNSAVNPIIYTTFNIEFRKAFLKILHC

[2] = biological target: T1, N-terminally SNAP-tagged human dopamine …; test: single-molecule TIRF microscopy (intensity distribution of fluorescent spots); living stably transfected CHO cells, SNAP-tag labelled with 1 uM Alexa546-BG, ligand-free; spots of the first 10 frames fitted with a mixed Gaussian model; room temperature (24.0 ± 0.3 °C), imaging buffer pH 7.4; SNAP-D2L at 0.67 ± 0.03 spots um^-2
[3] = biological target: T1, N-terminally SNAP-tagged human dopamine …; test: single-molecule TIRF microscopy (apparent lifetime of particle colocalization); Alexa546-labelled SNAP-D2L on living CHO cells with the monovalent ligand 1a; 120 trajectories, one-phase exponential decay; apparent
[4] = biological target: T1, N-terminally SNAP-tagged human dopamine …; test: single-molecule TIRF microscopy (apparent lifetime of particle colocalization); Alexa546-labelled SNAP-D2L on living CHO cells with the bivalent ligand 2a; 120 trajectories, one-phase exponential decay; apparent
[5] = biological target: T1, N-terminally SNAP-tagged human dopamine …; test: single-molecule TIRF microscopy (intensity distribution of fluorescent spots); Alexa546-BG-labelled SNAP-D2L on living CHO cells, incubated 1 h with the unsymmetrical control ligands 3a or 3b (one pharmacophore, one non-binding motif) at 10-fold Ki
[6] = biological target: T1, N-terminally SNAP-tagged human dopamine …; test: single-molecule TIRF microscopy (intensity distribution of fluorescent spots); Alexa546-BG-labelled SNAP-D2L on living CHO cells, incubated 1 h with the bivalent antagonists 2a or 2b at 10-fold Ki
[7] = biological target: T1, N-terminally SNAP-tagged human dopamine …; test: single-molecule TIRF microscopy (lifetime of transient dimers from intensity trajectories); Alexa546-labelled SNAP-D2L on living CHO cells, ligand-free; 120 dimers whose trajectories show intensity doubling and return; one-phase exponential fit
[8] = biological target: T1, N-terminally SNAP-tagged human dopamine …; test: single-molecule TIRF microscopy (intensity distribution of fluorescent spots); receptors on living CHO cells labelled 1 h at 37 °C with a fluorescent (Cy3B) antagonist (1c, 4a or 4b) at 10-fold Ki; spots fitted with a mixed Gaussian model

apparent colocalization lifetime (tau) [1]: 0.46 s
percent of fluorescent spots that are dimers [2]: 30%
percent of fluorescent spots that are monomers [2]: 70%
stoichiometry N [2]: 2
apparent colocalization lifetime (tau), with monovalent ligand 1a [3]: 0.42 s
apparent colocalization lifetime (tau), with bivalent ligand 2a [4]: 1.16 s
percent of fluorescent spots that are dimers, with control ligand 3a [5]: 33%
percent of fluorescent spots that are dimers, with control ligand 3b [5]: 34%
percent of fluorescent spots that are monomers, with control ligand 3a [5]: 67%
percent of fluorescent spots that are monomers, with control ligand 3b [5]: 66%
percent of fluorescent spots that are dimers, with bivalent antagonist 2a [6]: 66%
percent of fluorescent spots that are dimers, with bivalent antagonist 2b [6]: 58%
half-life (t1/2) of the transient dimer [7]: 0.35 s
lifetime of the transient dimer [7]: 0.5 s
percent of fluorescent spots that are dimers, labelled with antagonist 1c [8]: 26%
percent of fluorescent spots that are monomers, labelled with antagonist 1c [8]: 74%
B1: N-terminally SNAP-tagged human dopamine D2L receptor, P14416 1-443 (receptor)
chain: MDPLNLSWYDDDLERQNWSRPFNGSDGKADRPHYNYYATLLTLLIAVIVFGNVLVCMAVSREKALQTTTNYLIVSLAVADLLVATLVMPWVVYLEVVGEWKFSRIHCDIFVTLDVMMCTASILNLCAISIDRYTAVAMPMLYNTRYSSKRRVTVMISIVWVLSFTISCPLLFGLNNADQNECIIANPAFVVYSSIVSFYVPFIVTLLVYIKIYIVLRRRRKRVNTKRSSRAFRAHLRAPLKGNCTHPEDMKLCTVIMKSNGSFPVNRRRVEAARRAQELEMEMLSSTSPPERTRYSPIPPSHHQLTLPDPSHHGLHSTPDSPAKPEKNGHAKDHPKIAKIFEIQTMPNGKTRTSLKTMSRRKLSQQKEKKATQMLAIVLGVFIICWLPFFITHILNIHCDCNIPPVLYSAFTWLGYVNSAVNPIIYTTFNIEFRKAFLKILHC
modifications: here or on the partner: Alexa546 covalently on the SNAP-tag through benzylguanine (Alexa546-BG) in the SNAP-labelling experiments; Alexa546 covalently on the SNAP-tag through benzylguanine (Alexa546-BG) in the SNAP-labelling experiments
